Earlier results on three substances are cited in article PMC5713020.

One data set addresses p63 DBD (Homo sapiens) (UniProt Q9H3D4). Nature of the data set: AFS.
Another data set concerns the target p73 (Homo sapiens) (UniProt O15350). Nature of the data set: AFS.
The target of data set [1] is MDM4 (Homo sapiens) (UniProt O15151). Nature of the data set: SPR (Langmuir isotherm).
The target is the same in data set [2]. Kind of data set: SPR. (SPR reads the build-up and loss of mass on a sensor chip optically.)
The target in a further data set is p53 (Homo sapiens) (UniProt P04637). Kind of data set: SPR.

Where “and” joins values, the source holds several entries; their conditions need not be identical. Identical values can stand only once.

Sequence of p28 p28 peptide (P00282 70-97): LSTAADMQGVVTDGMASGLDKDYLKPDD
Sequence of p53 (Homo sapiens) (P04637 whole entry): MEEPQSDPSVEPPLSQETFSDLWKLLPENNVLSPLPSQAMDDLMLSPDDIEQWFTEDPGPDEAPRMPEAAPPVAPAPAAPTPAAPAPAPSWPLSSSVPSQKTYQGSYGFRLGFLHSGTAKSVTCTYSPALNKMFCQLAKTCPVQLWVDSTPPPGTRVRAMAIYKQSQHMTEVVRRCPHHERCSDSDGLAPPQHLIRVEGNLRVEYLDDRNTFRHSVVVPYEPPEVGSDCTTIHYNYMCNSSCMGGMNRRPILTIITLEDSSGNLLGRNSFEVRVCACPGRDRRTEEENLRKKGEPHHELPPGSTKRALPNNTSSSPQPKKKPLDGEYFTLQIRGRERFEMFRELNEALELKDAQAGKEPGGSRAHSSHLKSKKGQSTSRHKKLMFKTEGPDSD
Sequence of MDM4 (Homo sapiens) (O15151 whole entry): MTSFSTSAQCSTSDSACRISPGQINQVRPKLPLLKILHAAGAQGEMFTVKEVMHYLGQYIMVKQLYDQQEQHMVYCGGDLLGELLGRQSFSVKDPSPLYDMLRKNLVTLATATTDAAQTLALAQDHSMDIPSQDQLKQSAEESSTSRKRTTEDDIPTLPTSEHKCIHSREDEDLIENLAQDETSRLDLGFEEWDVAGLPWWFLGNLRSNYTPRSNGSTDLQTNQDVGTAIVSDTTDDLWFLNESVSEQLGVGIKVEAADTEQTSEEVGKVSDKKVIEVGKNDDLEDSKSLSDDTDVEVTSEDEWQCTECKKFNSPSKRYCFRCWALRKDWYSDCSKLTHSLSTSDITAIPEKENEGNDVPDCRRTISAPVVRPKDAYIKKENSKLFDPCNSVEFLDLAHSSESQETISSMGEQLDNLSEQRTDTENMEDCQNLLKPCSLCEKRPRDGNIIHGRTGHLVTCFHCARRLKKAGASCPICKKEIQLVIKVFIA
Sequence of Azurin (P00282 21-148): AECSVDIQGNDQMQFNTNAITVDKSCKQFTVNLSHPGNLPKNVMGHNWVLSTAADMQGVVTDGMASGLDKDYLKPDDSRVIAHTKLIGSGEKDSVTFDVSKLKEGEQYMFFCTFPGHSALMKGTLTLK
Sequence of MDM2 (Q00987 whole entry): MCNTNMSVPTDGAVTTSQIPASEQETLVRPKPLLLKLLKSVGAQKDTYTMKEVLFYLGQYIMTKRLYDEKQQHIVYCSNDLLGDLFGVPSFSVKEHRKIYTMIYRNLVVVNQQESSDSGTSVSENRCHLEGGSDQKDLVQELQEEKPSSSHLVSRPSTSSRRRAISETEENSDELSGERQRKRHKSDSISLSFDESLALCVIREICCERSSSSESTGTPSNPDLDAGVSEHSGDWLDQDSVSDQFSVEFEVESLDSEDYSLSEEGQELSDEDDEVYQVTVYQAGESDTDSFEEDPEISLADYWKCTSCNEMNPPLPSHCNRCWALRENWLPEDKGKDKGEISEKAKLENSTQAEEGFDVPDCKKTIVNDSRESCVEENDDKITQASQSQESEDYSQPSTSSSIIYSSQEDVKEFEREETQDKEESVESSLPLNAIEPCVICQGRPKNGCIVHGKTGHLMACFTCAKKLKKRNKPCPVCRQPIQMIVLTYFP
Sequence of p63 DBD (Homo sapiens) (Q9H3D4 166-362): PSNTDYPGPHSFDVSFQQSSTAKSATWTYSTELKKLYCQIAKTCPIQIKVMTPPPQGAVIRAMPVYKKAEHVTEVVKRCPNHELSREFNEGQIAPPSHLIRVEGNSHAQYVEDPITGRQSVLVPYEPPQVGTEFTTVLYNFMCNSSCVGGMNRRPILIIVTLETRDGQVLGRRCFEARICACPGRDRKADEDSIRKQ
Sequence of p73 (Homo sapiens) (O15350 whole entry): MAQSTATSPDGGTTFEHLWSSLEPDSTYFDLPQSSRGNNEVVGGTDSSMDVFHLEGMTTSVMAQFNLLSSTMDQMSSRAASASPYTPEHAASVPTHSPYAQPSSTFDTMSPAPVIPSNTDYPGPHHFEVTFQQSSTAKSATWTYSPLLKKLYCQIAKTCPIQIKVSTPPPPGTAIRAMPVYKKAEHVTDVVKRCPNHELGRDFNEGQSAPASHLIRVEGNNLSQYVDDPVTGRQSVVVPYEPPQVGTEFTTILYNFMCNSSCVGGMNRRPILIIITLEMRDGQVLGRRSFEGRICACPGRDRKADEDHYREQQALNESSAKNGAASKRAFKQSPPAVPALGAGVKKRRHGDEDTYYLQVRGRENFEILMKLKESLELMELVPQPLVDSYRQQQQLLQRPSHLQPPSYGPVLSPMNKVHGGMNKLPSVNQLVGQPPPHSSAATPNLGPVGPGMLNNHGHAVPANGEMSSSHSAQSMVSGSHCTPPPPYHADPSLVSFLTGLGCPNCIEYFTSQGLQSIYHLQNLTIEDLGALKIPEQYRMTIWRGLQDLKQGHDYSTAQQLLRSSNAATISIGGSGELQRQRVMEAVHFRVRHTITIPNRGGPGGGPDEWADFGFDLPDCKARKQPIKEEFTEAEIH

As to p28 p28 peptide (from UniProt P00282), the Kd (as a rule, the free concentration of one partner at which half of the binding sites on the other are occupied at equilibrium, for simple one-to-one binding) with p63 DBD (Homo sapiens) is 1000 nM; with p73 (Homo sapiens) it was 100 nM.

On to MDM2 (from UniProt Q00987), for which the Kd with MDM4 (Homo sapiens) [1] was 1000 nM; with MDM4 (Homo sapiens) [2], 390 nM.

Regarding Azurin (from UniProt P00282), the Kd in the data set with p53 (Homo sapiens) was 1300 nM and 1200 nM.
